Tests used:
Test in all cases: EMSA; Light Shift Chemiluminescent EMSA Kit (Beyotime); buffer, salt, pH and temperature not stated
Settings in all cases: protein: recombinant; tags: His (pET-30a(+)); label: biotin
PavDof6 = molecular target: T1, PavDof6 (Prunus avium (sweet cherry), UniProt A0A6P5RUY3 1-310)
T1 sequence: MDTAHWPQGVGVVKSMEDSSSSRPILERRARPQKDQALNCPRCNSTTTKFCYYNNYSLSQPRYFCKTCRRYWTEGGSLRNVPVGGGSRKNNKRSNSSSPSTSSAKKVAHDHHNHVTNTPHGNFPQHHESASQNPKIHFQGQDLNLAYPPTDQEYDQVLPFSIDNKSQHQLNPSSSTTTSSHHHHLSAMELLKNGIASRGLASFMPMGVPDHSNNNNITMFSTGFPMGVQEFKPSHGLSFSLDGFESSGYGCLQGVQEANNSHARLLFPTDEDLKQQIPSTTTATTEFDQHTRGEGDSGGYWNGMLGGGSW

PavDof2 = molecular target: T2, PavDof2 (Prunus avium (sweet cherry), UniProt A0A6P5T378 1-263)
T2 sequence: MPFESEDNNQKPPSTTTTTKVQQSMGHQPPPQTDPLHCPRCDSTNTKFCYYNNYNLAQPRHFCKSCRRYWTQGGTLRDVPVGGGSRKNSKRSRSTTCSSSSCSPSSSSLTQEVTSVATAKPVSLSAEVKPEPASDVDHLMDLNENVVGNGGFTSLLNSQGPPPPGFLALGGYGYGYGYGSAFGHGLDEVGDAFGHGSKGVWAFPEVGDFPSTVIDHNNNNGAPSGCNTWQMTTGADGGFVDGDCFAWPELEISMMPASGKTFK

PavDof15 = molecular target: T3, PavDof15 (Prunus avium (sweet cherry), UniProt A0A6P5S8Z2 1-327)
T3 sequence: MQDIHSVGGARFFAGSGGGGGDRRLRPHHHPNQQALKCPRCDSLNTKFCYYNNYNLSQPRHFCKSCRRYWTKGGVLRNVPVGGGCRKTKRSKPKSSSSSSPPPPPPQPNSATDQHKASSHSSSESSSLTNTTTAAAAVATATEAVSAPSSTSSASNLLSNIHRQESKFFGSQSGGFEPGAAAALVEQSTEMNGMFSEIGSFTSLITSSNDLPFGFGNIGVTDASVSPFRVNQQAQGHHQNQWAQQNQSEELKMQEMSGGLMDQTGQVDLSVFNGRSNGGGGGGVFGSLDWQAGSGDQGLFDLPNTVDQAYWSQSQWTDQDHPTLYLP

Measured: binding result

B1: PavQRT3 promoter probe (dsDNA)
DNA 1: TTGAAAAGTTAGGAAAAAAGTTT
DNA 2: AAACTTTTTTCCTAACTTTTCAA
binds: all assays above

B2: PavPME44 promoter probe (dsDNA)
DNA 1: CTGCTTTTCTGAAAATTAAAGCAGTTTGGAGAAAAGTCC
DNA 2: GGACTTTTCTCCAAACTGCTTTAATTTTCAGAAAAGCAG
binds: all assays above

B3: PavPL18 promoter probe (dsDNA)
DNA 1: CATAAAAAGAAATAAAATGAAAAGAAAAGTGA
DNA 2: TCACTTTTCTTTTCATTTTATTTCTTTTTATG
binds: all assays above

B4: PavXTH31 promoter probe (dsDNA)
DNA 1: TGCTTTTTTTTTTTTAAAGGATT
DNA 2: AATCCTTTAAAAAAAAAAAAGCA
binds: all assays above

B5: PavXTH26 promoter probe (dsDNA)
DNA 1: AACATTCTTTTTGTAAATCAAGTAGTTAAAAGCATTTAC
DNA 2: GTAAATGCTTTTAACTACTTGATTTACAAAAAGAATGTT
binds: all assays above

B6: PavNCED1 promoter probe (Dof site) (dsDNA)
DNA 1: CTCAAAAGCTAGTTATATGGAAAAAGGGA
DNA 2: TCCCTTTTTCCATATAACTAGCTTTTGAG
binds: all assays above

— PMC9706453, “Abscisic acid-responsive transcription factors PavDof2/6/15 mediate fruit softening in sweet cherry”
